Measured values reported in patent US20180312587A1 (ADURO BIOTECH HOLDINGS EUROPE B V, published 2018).

Tests used:
human SIRPβ1 = target: T1, human SIRPβ1 (human, UniProt O00241 30-398); experiment: CELISA, CHO-K1 transfectants; nd = not detected
T1 construct: also called hSIRPβ1
Procedure: (§1) Binding of the humanized antibodies to hSIRPα was studied in CELISA format. Binding of the hSIRPα antibodies to human SIRPαV1, SIRPαV2, hSIRPβ1, and hSIRPγ was confirmed using CHO-K1 cells that had been transiently transfected with cDNA encoding the full length open reading frame of each of these respective targets subcloned into the pCI-neo vector. CHO-K1.hSIRPαV1, CHO-K1.hSIRPαV2, CHO-K1.hSIRPβ1, and CHO-K1.hSIRPγ cells were seeded in culture medium (DMEM-F12 (Gibco) supplemented with 5% New Born Calf Serum (BioWest) and Pen/Strep (Gibco)) in 96-well flat-bottom tissue culture plates and incubated at 37° C., 5% CO₂ and 95% humidity until cell layers were confluent. Subsequently, culture medium was removed and cells were incubated for 1 hour at 37° C., 5% CO₂ and 95% humidity with purified hSIRPα antibodies (10 μg/mL and dilutions thereof). Next, cells were washed with PBS-T and incubated for 1 hour at 37° C., 5% CO₂ and 95% humidity with goat-anti-human IgG-HRP conjugate (Jackson Immuno Research) or goat-anti-mouse IgG-HRP (Southern Biotech). Subsequently, cells were washed three times with PBS-T and anti-hSIRPα immunoreactivity was visualized with TMB Stabilized Chromogen (Invitrogen). Reactions were stopped with 0.5 M H₂SO₄ and absorbances were read at 450 and 610 nm. […] In Table 13 the EC50 values of the humanized hSIRPα antibodies are depicted.
(§2) Table 13: Binding of humanized and parental hSIRPα.50A antibodies to CHO-K1.hSIRPαV1, CHO-K1.hSIRPαV2, CHO-K1.hSIRPβ1, and CHO-K1.hSIRPγ cells.

human SIRPα variant 2 = target: T2, human SIRPα variant 2 (human, UniProt P78324 31-504); experiment: CELISA, CHO-K1 transfectants; average of two experiments
T2 construct: full length ORF on transfected CHO-K1 cells; also called hSIRPαV2; SIRPαV2
T2 sequence (P78324 other isoform, or with tags, fused parts or gaps mutant limits assumed): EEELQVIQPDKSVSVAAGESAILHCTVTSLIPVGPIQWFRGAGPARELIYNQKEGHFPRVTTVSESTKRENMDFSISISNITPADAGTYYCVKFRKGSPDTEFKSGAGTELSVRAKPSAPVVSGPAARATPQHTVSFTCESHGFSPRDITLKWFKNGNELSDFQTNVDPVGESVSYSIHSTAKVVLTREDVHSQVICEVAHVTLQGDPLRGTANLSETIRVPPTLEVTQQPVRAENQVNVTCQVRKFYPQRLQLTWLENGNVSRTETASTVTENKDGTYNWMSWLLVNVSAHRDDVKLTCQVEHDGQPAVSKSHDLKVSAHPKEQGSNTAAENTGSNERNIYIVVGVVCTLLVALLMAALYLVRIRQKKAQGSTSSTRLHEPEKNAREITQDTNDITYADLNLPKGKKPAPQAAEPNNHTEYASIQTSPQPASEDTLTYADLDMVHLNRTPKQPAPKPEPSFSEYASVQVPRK
Procedure: as §1, §2

human SIRPα variant 1 = target: T3, human SIRPα variant 1 (human, UniProt P78324 31-504); experiment: as above
T3 construct: full length ORF on transfected CHO-K1 or HEK293 cells; entry includes the signal peptide; also called hSIRPαV1; SIRPαV1
T3 sequence (P78324 31-504 limits assumed, change not shown): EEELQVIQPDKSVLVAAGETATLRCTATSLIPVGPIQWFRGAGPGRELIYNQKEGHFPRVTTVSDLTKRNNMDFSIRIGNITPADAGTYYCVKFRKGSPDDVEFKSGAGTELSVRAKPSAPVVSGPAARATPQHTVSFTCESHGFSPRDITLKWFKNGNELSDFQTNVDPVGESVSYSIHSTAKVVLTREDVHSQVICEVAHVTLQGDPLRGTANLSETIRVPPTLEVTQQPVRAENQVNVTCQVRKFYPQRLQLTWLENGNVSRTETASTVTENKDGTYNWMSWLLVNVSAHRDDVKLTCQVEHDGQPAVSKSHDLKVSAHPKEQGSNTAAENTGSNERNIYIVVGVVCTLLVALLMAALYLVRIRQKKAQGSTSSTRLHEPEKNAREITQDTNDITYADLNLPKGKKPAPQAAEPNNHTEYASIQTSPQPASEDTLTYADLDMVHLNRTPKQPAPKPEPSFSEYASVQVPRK
Procedure: as §1, §2

human SIRPγ = target: T4, human SIRPγ (human, UniProt Q9P1W8 29-387); experiment: CELISA, CHO-K1 transfectants; extrapolated
T4 construct: on transfected CHO-K1 cells; also called hSIRPγ
T4 sequence (Q9P1W8 29-387 limits assumed): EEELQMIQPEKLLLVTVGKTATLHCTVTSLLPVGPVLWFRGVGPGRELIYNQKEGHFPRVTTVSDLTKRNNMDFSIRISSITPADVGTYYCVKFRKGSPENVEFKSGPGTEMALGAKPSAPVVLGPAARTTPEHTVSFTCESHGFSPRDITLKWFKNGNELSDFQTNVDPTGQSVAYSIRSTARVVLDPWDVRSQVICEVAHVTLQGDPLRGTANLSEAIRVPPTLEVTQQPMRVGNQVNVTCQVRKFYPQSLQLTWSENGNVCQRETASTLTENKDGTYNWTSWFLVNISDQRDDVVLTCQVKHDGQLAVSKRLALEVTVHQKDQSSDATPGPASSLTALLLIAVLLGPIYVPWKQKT
Procedure: as §1, §2

T1 sequence (O00241 30-398 limits assumed): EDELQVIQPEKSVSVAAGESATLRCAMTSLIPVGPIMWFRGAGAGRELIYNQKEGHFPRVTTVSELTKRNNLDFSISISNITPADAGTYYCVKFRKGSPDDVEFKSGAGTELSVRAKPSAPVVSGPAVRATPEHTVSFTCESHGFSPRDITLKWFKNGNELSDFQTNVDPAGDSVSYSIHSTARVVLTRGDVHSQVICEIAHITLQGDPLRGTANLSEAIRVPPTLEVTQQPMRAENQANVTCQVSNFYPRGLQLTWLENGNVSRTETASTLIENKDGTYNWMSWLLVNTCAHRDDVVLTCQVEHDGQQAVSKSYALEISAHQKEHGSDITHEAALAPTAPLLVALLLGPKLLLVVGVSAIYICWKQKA

| Binder | EC50 (human SIRPα variant 2) [nM] | EC50 (human SIRPα variant 1) [nM] | EC50 (human SIRPγ) [nM] | binding result (human SIRPβ1) |
| --- | --- | --- | --- | --- |
| hSIRPα.50A.H1L2 (antibody, human IgG4 S228P, kappa, V domains shown, human IgG4 S228P, kappa; also called hSIRPα.50H1L2) VH: EVQLQQSGAEVVKPGASVKVSCKASGFTFTNYYIHWVRQAPGQGLEWIGWIYPGNVNTKYNEKFKARVTITADKSTSTAYMDLSSLRSEDTAVYYCARPTIIATDFDVWGQGTTVTVSS VL: DIVMTQSPSSLSASVGDRVTITCKASQGVGTAVGWYQQKPGKAPKLLIYWASTRHTGVPDRFSGSGSGTDFTLTISNLQPEDFADYYCQQYSTYPFTFGGGTKVEIKR | 0.816 | 0.781 | 1.26 | no binding (tested: 10 µg/mL and dilutions thereof) |
| hSIRPα.50A.H3L3 (antibody, human IgG4 S228P, kappa, V domains shown, human IgG4 S228P, kappa; also called hSIRPα.50H3L3) VH: EVQLVQSGAEVVKPGASVMISCKASGFTFTNYYIHWVRQRPGQGLEWIGWIYPGNVNTKYNEKFKARVIMTADKSTSTVYMQLSSLTSEDTAVYYCARPTIIATDFDVWGQGTLVTVSS VL: ELVMTQSPSSLSASVGDRVTITCKASQGVGTAVGWYQQKPGKAPKLLIYWASTRHTGVPDRFSGSGSGTDFTLAISSLQPEDIADYYCQQYSTYPFTFGGGTKVEIKR | 1.16 | 1.16 | 2.47 | no binding (tested: 10 µg/mL and dilutions thereof) |
| hSIRPα.50A.H5L1 (antibody, human IgG4 S228P, kappa, V domains shown, human IgG4 S228P, kappa; also called hSIRPα.50H5L1) VH: EVQLVQSGAEVVKPGASVKVSCKASGFTFTNYYIHWVRQAPEQGLEWIGWIYPGNVNTKYNEKFKARVTMTADKSTSTAYMELSSLRSDDMAVYYCARPTIIATDFDVWGQGTTVTVSS VL: DIVLTQSPSFLSASVGDRVTITCKASQGVGTAVGWYQQKPGKAPKLLIYWASTRHTGVPDRFSGSGSGTEFTLTISSLQPEDFAAYYCQQYSTYPFTFGGGTKLEIKR | 0.709 | 0.731 | 1.03 | no binding (tested: 10 µg/mL and dilutions thereof) |
| hSIRPα.50A.H5L5 (antibody, human IgG4 S228P, kappa, V domains shown, human IgG4 S228P, kappa; also called hSIRPα.50H5L5) VH: EVQLVQSGAEVVKPGASVKVSCKASGFTFTNYYIHWVRQAPEQGLEWIGWIYPGNVNTKYNEKFKARVTMTADKSTSTAYMELSSLRSDDMAVYYCARPTIIATDFDVWGQGTTVTVSS VL: DIVLTQSPSFLSASVGDRVTITCKASQGVGTAVGWYQQKPGKSPKLLIYWASTRHTGVPDRFSGSGSGTEFTLTISNLQPEDFAAYYCQQYSTYPFTFGGGTKLEIKR | 0.611 | 0.681 | 0.868 | no binding (tested: 10 µg/mL and dilutions thereof) |
| hSIRPα.50A.H5L3 (antibody, human IgG4 S228P, kappa, V domains shown, human IgG4 S228P, kappa; also called hSIRPα.50H5L3) VH: EVQLVQSGAEVVKPGASVKVSCKASGFTFTNYYIHWVRQAPEQGLEWIGWIYPGNVNTKYNEKFKARVTMTADKSTSTAYMELSSLRSDDMAVYYCARPTIIATDFDVWGQGTTVTVSS VL: ELVMTQSPSSLSASVGDRVTITCKASQGVGTAVGWYQQKPGKAPKLLIYWASTRHTGVPDRFSGSGSGTDFTLAISSLQPEDIADYYCQQYSTYPFTFGGGTKVEIKR | 0.796 | 1.03 | 1.61 | no binding (tested: 10 µg/mL and dilutions thereof) |
| hSIRPα.50A.H1L5 (antibody, human IgG4 S228P, kappa, V domains shown, human IgG4 S228P, kappa; also called hSIRPα.50H1L5) VH: EVQLQQSGAEVVKPGASVKVSCKASGFTFTNYYIHWVRQAPGQGLEWIGWIYPGNVNTKYNEKFKARVTITADKSTSTAYMDLSSLRSEDTAVYYCARPTIIATDFDVWGQGTTVTVSS VL: DIVLTQSPSFLSASVGDRVTITCKASQGVGTAVGWYQQKPGKSPKLLIYWASTRHTGVPDRFSGSGSGTEFTLTISNLQPEDFAAYYCQQYSTYPFTFGGGTKLEIKR | 0.848 | 0.962 | 1.01 | no binding (tested: 10 µg/mL and dilutions thereof) |
| hSIRPα.50A.H1L1 (antibody, human IgG4 S228P, kappa, V domains shown, human IgG4 S228P, kappa; also called hSIRPα.50H1L1) VH: EVQLQQSGAEVVKPGASVKVSCKASGFTFTNYYIHWVRQAPGQGLEWIGWIYPGNVNTKYNEKFKARVTITADKSTSTAYMDLSSLRSEDTAVYYCARPTIIATDFDVWGQGTTVTVSS VL: DIVLTQSPSFLSASVGDRVTITCKASQGVGTAVGWYQQKPGKAPKLLIYWASTRHTGVPDRFSGSGSGTEFTLTISSLQPEDFAAYYCQQYSTYPFTFGGGTKLEIKR | 0.864 | 0.883 | 1.49 | no binding (tested: 10 µg/mL and dilutions thereof) |
| hSIRPα.50A.H3L2 (antibody, human IgG4 S228P, kappa, V domains shown, human IgG4 S228P, kappa; also called hSIRPα.50H3L2) VH: EVQLVQSGAEVVKPGASVMISCKASGFTFTNYYIHWVRQRPGQGLEWIGWIYPGNVNTKYNEKFKARVIMTADKSTSTVYMQLSSLTSEDTAVYYCARPTIIATDFDVWGQGTLVTVSS VL: DIVMTQSPSSLSASVGDRVTITCKASQGVGTAVGWYQQKPGKAPKLLIYWASTRHTGVPDRFSGSGSGTDFTLTISNLQPEDFADYYCQQYSTYPFTFGGGTKVEIKR | 0.999 | 1.05 | 1.5 | no binding (tested: 10 µg/mL and dilutions thereof) |

Further binders by falling EC50 (human SIRPα variant 2), results first:

| EC50 (human SIRPα variant 2) [nM] | EC50 (human SIRPα variant 1) [nM] | EC50 (human SIRPγ) [nM] | Binder | binding result (human SIRPβ1) |
| --- | --- | --- | --- | --- |
| 1.62 | 1.49 | 7.43 | hSIRPα.50A.H1L4 (antibody, human IgG4 S228P, kappa, V domains shown, human IgG4 S228P, kappa; also called hSIRPα.50H1L4) VH: EVQLQQSGAEVVKPGASVKVSCKASGFTFTNYYIHWVRQAPGQGLEWIGWIYPGNVNTKYNEKFKARVTITADKSTSTAYMDLSSLRSEDTAVYYCARPTIIATDFDVWGQGTTVTVSS VL: DIQMTQSPSSLSASVGDRVTITCKASQGVGTAVGWYQKKPGKVPKLLIYWASTRHTGVPDRFSGSGSGTDFTLTINGLQPEDVATYYCQQYSTYPFTFGGGTKLEIKR | no binding (tested: 10 µg/mL and dilutions thereof) |
| 1.11 | 1.09 | 2.58 | hSIRPα.50A.H1L3 (antibody, human IgG4 S228P, kappa, V domains shown, human IgG4 S228P, kappa; also called hSIRPα.50H1L3) VH: EVQLQQSGAEVVKPGASVKVSCKASGFTFTNYYIHWVRQAPGQGLEWIGWIYPGNVNTKYNEKFKARVTITADKSTSTAYMDLSSLRSEDTAVYYCARPTIIATDFDVWGQGTTVTVSS VL: ELVMTQSPSSLSASVGDRVTITCKASQGVGTAVGWYQQKPGKAPKLLIYWASTRHTGVPDRFSGSGSGTDFTLAISSLQPEDIADYYCQQYSTYPFTFGGGTKVEIKR | no binding (tested: 10 µg/mL and dilutions thereof) |
| 1.06 | 1.1 | 1.42 | hSIRPα.50A.H3L1 (antibody, human IgG4 S228P, kappa, V domains shown, human IgG4 S228P, kappa; also called hSIRPα.50H3L1) VH: EVQLVQSGAEVVKPGASVMISCKASGFTFTNYYIHWVRQRPGQGLEWIGWIYPGNVNTKYNEKFKARVIMTADKSTSTVYMQLSSLTSEDTAVYYCARPTIIATDFDVWGQGTLVTVSS VL: DIVLTQSPSFLSASVGDRVTITCKASQGVGTAVGWYQQKPGKAPKLLIYWASTRHTGVPDRFSGSGSGTEFTLTISSLQPEDFAAYYCQQYSTYPFTFGGGTKLEIKR | no binding (tested: 10 µg/mL and dilutions thereof) |
| 0.898 | 0.933 | 1.6 | hSIRPα.50A.H4L3 (antibody, human IgG4 S228P, kappa, V domains shown, human IgG4 S228P, kappa; also called hSIRPα.50H4L3) VH: EVQLQQSGAELVKPGASVKVSCKASGFTFTNYYIHWVRQRPGQGLEWMGWIYPGNVNTKYNEKFKAKATITADKSTSTAYMELSSLTSEDTAVYYCARPTIIATDFDVWGQGTTVTVSS VL: ELVMTQSPSSLSASVGDRVTITCKASQGVGTAVGWYQQKPGKAPKLLIYWASTRHTGVPDRFSGSGSGTDFTLAISSLQPEDIADYYCQQYSTYPFTFGGGTKVEIKR | no binding (tested: 10 µg/mL and dilutions thereof) |
| 0.651 | 0.737 | 0.871 | hSIRPα.50A.H4L2 (antibody, human IgG4 S228P, kappa, V domains shown, human IgG4 S228P, kappa; also called hSIRPα.50H4L2) VH: EVQLQQSGAELVKPGASVKVSCKASGFTFTNYYIHWVRQRPGQGLEWMGWIYPGNVNTKYNEKFKAKATITADKSTSTAYMELSSLTSEDTAVYYCARPTIIATDFDVWGQGTTVTVSS VL: DIVMTQSPSSLSASVGDRVTITCKASQGVGTAVGWYQQKPGKAPKLLIYWASTRHTGVPDRFSGSGSGTDFTLTISNLQPEDFADYYCQQYSTYPFTFGGGTKVEIKR | no binding (tested: 10 µg/mL and dilutions thereof) |
| 0.572 | 0.675 | 0.822 | hSIRPα.50A.H5L2 (antibody, human IgG4 S228P, kappa, V domains shown, human IgG4 S228P, kappa; also called hSIRPα.50H5L2) VH: EVQLVQSGAEVVKPGASVKVSCKASGFTFTNYYIHWVRQAPEQGLEWIGWIYPGNVNTKYNEKFKARVTMTADKSTSTAYMELSSLRSDDMAVYYCARPTIIATDFDVWGQGTTVTVSS VL: DIVMTQSPSSLSASVGDRVTITCKASQGVGTAVGWYQQKPGKAPKLLIYWASTRHTGVPDRFSGSGSGTDFTLTISNLQPEDFADYYCQQYSTYPFTFGGGTKVEIKR | no binding (tested: 10 µg/mL and dilutions thereof) |
